We go through 2 molecules from patent publication US11795460B2, “Compositions and methods for TTR gene editing and treating ATTR amyloidosis” (Intellia Therapeutics, Inc., priority 2017, dated 2023).

Strand notation (5' to 3'): a small letter for the sugar, then the base; units joined by * are phosphorothioate-linked, units joined directly phosphodiester-linked; [ ] holds rarer units or linkages, { } end groups; capitals alone tell only the bases. m = 2'-O-methyl; r = 2'-OH (RNA)

Series [1] relates to HuTTR V30M locus. Description: Liver editing in humanized transgenic V30M mouse model of hereditary ATTR amyloidosis. In kind it is in vivo. The following applies: V30M humanized mice, single 1 mg/kg dose of LNP. Here is the method: (§1) Unless otherwise noted, CD-1 female mice, ranging from 6-10 weeks of age were used in each study. Animals were weighed and grouped according to body weight for preparing dosing solutions based on group average weight. LNPs were dosed via the lateral tail vein in a volume of 0.2 mL per animal (approximately 10 mL per kilogram body weight). […] Body weight was measured at twenty-four hours post-administration, and animals were euthanized at various time points by exsanguination via cardiac puncture under isoflourane anesthesia. Blood was collected into serum separator tubes or into tubes containing buffered sodium citrate for plasma as described herein. […]
(§2) To quantitatively determine the efficiency of editing at the target location in the genome, sequencing was utilized to identify the presence of insertions and deletions introduced by gene editing. […]
(§3) Additional PCR was performed per the manufacturer's protocols (Illumina) to add chemistry for sequencing. […] The reads were aligned to a reference genome (e.g., the human reference genome (hg38), the cynomologus reference genome (mf5), the rat reference genome (rn6), or the mouse reference genome (mm10)) after eliminating those having low quality scores. […]

The subject of series [2] is human TTR protein. The series can be described thus: Human TTR protein ELISA in serum and cerebrospinal fluid of V30M mice. The following applies: V30M humanized mice, single 1 mg/kg dose, 8 weeks post treatment. Format: in vivo, mouse. As to the method: A well-established humanized transgenic mouse model of hereditary ATTR amyloidosis that expresses the V30M pathogenic mutant form of human TTR protein was used in this Example. This mouse model recapitulates the TTR deposition phenotype in tissues observed in ATTR patients, including within the peripheral nervous system and gastrointestinal (GI) tract (See Santos et al., Neurobiol Aging. 2010 February; 31(2):280-9).
Mice (aged approximately 4-5 months) were dosed with LNP formulations prepared using the cross-flow and TFF procedures as described in Example 1. The LNPs were formulated with an N:P ratio of 6.0 and contained Lipid A, Cholesterol, DSPC, and PEG2k-DMG in a 50:38:9:2 molar ratio, respectively. The LNPs contained Cas9 mRNA (SEQ ID NO: 1) and either G000481 (“G481”) or a non-targeting control guide G000395 (“G395”; SEQ ID NO: 273), in a 1:1 ratio of gRNA:mRNA by weight.
Mice were injected via the lateral tail vein as described in Example 1 with a single 1 mg/kg (of total RNA content) dose of LNP with an n=10/group. […] Human TTR protein levels were measured in serum and cerebrospinal fluid (CSF) by ELISA as previously described by Butler et al., Amyloid. […] Other tissues (stomach, colon, sciatic nerve, dorsal root ganglion (DRG)) were collected and processed for semi-quantitative immunohistochemistry as previously described by Gonsalves et al., Amyloid. […]
For orientation: In an ELISA, binding on a coated surface is turned into a signal by an enzyme label.

Series [3] deals with murine TTR. The series can be described thus: Liver editing in mice with murine TTR dosed with LNP formulations (Table 29). Format: in vivo, mouse. The following applies: wild type CD-1 mice; 1, 0.3, 0.1, 0.03, or 0.01 mg/kg; FIG. 15A. Here is the method:
as §1, §2, §3

B1: G000481: TTR sgRNA modified sequence, Human, SEQ ID No. 88; guide sequence of CR003345 (nucleic acid)
guide: mU*mC*mU*rArGrArArCrUrUrUrGrArCrCrArUrCrArGrGrUrUrUrUrArGrAmGmCmUmAmGmAmAmAmUmAmGmCrArArGrUrUrArArArArUrArArGrGrCrUrArGrUrCrCrGrUrUrArUrCrAmAmCmUmUmGmAmAmAmAmAmGmUmGmGmCmAmCmCmGmAmGmUmCmGmGmUmGmCmU*mU*mU*mU
Regarding B1, in series [1] (8 weeks post treatment), the “Editing of TTR in livers” value came to 49.4%. For the same molecule, in series [1] (remainder deletions), the “Share of editing events that were insertions” value is 96.8%. Also, in series [2], the “TTR protein levels in CSF” value is listed as “not in CSF”. Besides, the “Knockdown of TTR plasma levels” value in series [2] (p<0.001) is “greater than 99%”.

B2: G000502: TTR Cyno specific sgRNA modified sequence, SEQ ID No. 114; guide sequence of CR000689; cross homologous between mouse and cyno (nucleic acid)
guide: mA*mC*mA*rCrArArArUrArCrCrArGrUrCrCrArGrCrGrGrUrUrUrUrArGrAmGmCmUmAmGmAmAmAmUmAmGmCrArArGrUrUrArArArArUrArArGrGrCrUrArGrUrCrCrGrUrUrArUrCrAmAmCmUmUmGmAmAmAmAmAmGmUmGmGmCmAmCmCmGmAmGmUmCmGmGmUmGmCmU*mU*mU*mU
Turning to B2, the “Liver editing, dose response” value in series [3] is “A dose response for both editing and serum TTR levels was evident”.
